From US20120114557A1 come the findings set out here.

Bridge positions count the residues as written; N and C are the ends. Square brackets hold non-standard residues; d marks the D form. Ends that are not written are not given here.

The target in assay [1] is rat collagen type I (rat) (UniProt P02454). Briefly: dried collagen assay, 5 uM peptide.
In assay [2] the target is human collagen type I (human) (UniProt P02452). Briefly: dried collagen assay, 5 uM peptide.
Assay [3] addresses T1, Compound ID No 1014.
T1 chain: KKWHCYTYFPHHYCVYG
Nature of the assay: competition in the dried collagen assay: 1.6 uM soluble competitor protein, 5 uM Comp ID No 1014, 5 uM insoluble type I rat collagen.

Assay [4] concerns the target T1, Compound ID No 1014. Nature of the assay: competition in the dried collagen assay: 1.6 uM soluble competitor protein, 5 uM Comp ID No 1014, 5 uM insoluble type I human collagen.

Chain of human collagen type I (human) (P02452 162-1218 limits assumed, chain 1 of 2): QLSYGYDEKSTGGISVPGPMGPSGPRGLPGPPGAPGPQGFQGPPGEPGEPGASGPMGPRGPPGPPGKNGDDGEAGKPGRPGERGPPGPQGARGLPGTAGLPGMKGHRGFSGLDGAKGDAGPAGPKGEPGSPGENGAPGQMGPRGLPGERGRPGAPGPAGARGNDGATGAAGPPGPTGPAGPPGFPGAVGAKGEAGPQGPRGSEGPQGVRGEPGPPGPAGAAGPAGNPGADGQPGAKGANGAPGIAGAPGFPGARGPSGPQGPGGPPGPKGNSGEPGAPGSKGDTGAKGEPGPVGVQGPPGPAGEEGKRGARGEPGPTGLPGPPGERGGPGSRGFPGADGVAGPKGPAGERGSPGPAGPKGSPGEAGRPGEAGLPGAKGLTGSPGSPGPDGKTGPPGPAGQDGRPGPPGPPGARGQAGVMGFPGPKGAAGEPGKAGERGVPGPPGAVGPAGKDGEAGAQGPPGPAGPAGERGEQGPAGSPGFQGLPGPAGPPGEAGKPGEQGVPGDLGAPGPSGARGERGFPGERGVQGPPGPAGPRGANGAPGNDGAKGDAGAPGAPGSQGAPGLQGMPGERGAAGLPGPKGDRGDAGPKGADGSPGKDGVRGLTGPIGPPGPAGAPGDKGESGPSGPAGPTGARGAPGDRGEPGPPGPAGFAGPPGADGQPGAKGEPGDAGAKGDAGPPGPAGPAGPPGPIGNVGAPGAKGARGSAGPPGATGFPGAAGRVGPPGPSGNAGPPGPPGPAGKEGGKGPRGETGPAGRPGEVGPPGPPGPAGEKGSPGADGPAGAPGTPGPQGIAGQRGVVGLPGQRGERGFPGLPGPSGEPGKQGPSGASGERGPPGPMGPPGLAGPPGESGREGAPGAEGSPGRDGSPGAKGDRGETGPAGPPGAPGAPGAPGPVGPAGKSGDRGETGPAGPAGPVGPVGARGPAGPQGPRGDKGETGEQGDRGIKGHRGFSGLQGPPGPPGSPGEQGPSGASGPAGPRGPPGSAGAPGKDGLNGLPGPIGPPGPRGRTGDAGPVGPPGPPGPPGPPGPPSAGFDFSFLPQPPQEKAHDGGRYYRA
Chain of human collagen type I (human) (P08123 80-1119 limits assumed, chain 2 of 2, further chain): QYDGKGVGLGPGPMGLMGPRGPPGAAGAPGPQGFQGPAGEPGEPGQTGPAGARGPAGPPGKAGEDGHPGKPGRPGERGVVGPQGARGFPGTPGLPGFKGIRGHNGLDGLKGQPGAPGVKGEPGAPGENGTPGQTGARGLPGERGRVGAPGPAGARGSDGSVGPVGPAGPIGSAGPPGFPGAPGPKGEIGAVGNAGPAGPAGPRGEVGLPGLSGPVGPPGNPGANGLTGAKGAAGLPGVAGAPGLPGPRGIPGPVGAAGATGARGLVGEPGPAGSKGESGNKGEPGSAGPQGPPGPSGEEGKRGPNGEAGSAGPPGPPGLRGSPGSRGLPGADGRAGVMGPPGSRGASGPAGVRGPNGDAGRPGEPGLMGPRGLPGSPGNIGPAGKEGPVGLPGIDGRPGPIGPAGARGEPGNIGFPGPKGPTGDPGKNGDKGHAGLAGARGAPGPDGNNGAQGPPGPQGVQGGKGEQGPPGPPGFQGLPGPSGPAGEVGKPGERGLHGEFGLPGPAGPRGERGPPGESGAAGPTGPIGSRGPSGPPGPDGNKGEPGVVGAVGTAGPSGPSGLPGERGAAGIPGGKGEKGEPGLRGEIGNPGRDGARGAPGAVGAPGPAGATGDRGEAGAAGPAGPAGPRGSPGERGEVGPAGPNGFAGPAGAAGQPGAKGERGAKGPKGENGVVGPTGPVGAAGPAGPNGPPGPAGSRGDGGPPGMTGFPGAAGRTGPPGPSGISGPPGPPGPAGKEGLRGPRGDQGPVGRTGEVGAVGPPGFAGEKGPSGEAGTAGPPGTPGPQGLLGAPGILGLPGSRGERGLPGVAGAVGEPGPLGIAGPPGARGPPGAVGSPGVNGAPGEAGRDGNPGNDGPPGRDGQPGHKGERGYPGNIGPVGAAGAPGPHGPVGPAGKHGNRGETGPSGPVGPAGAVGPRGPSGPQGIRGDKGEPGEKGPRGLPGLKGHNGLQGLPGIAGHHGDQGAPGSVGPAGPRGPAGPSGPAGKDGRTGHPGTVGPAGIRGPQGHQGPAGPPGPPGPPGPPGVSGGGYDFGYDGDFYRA
Chain of rat collagen type I (rat) (P02454 152-1207, chain 1 of 2): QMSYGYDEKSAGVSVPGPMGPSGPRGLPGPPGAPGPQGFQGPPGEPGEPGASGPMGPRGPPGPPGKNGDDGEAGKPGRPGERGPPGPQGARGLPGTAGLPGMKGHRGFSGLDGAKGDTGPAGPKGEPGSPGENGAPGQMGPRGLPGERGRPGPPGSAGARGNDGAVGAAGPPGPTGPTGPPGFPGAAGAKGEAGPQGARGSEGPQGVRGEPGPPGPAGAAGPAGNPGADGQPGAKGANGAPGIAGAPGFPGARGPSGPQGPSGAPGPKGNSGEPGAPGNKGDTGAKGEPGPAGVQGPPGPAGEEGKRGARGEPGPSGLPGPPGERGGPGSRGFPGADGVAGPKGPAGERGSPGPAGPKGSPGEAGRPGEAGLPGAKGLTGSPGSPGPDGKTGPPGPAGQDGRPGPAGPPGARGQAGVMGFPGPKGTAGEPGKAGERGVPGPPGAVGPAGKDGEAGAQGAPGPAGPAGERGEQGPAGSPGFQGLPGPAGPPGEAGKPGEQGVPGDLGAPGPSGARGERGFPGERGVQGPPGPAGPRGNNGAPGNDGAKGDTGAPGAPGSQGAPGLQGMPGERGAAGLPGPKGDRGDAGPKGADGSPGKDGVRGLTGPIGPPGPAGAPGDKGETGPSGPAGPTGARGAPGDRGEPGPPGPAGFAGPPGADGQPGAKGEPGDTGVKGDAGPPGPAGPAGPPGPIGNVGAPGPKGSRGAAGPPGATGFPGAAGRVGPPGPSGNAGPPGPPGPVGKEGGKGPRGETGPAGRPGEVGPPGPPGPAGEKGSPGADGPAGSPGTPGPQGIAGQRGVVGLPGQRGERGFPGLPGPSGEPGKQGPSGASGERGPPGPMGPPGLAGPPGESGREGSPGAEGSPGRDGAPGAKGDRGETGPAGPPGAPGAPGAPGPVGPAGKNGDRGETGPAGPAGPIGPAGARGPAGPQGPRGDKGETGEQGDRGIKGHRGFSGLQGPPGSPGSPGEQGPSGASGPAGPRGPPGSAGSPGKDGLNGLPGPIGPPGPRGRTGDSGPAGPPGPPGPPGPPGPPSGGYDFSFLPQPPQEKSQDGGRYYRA
Chain of rat collagen type I (rat) (P02466 86-1125, chain 2 of 2, further chain): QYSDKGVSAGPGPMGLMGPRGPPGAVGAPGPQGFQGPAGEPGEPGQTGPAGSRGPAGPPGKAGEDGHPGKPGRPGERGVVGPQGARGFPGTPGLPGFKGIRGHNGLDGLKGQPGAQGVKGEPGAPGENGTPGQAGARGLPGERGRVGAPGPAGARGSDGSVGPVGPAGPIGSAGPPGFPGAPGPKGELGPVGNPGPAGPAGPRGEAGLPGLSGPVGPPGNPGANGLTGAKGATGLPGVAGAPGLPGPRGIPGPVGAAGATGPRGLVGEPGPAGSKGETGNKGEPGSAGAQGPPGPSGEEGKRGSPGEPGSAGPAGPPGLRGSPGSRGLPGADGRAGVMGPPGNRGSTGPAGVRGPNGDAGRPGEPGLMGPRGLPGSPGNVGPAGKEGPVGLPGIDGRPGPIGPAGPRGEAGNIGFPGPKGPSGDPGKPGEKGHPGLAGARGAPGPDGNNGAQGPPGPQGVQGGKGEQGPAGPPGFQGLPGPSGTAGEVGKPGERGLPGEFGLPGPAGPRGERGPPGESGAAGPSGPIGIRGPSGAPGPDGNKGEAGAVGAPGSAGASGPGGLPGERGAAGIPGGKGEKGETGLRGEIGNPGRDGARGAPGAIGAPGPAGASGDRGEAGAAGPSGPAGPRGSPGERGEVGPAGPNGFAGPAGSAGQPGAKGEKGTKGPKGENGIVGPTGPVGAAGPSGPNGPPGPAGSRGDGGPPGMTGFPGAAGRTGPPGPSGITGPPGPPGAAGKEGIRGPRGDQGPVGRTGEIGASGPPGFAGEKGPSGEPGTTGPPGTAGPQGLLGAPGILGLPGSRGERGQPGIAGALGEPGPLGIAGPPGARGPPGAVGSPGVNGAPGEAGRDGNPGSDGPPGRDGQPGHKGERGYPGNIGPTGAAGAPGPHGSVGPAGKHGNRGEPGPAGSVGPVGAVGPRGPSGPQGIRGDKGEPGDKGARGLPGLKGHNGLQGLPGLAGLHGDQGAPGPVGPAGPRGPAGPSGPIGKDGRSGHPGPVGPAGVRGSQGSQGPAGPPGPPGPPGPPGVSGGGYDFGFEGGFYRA

B1: SEQ ID NO: 183 (peptide)
peptide: DWTCS[dL]DEYTWHCNYE
modifications: disulfide 4-13 (inferred); not fully specified (C-terminus); printed as D W T C S l D E Y T W H C N Y E
For B1, the % Collagen Binding, Dried Rat in assay [1] was found to be 63%. This molecule also yielded a % Collagen Binding, Dried Human in assay [2] of 73%.

B2: SEQ ID NO: 181 (peptide)
peptide: DWTCS[dR]DEYTWHCNYE
modifications: disulfide 4-13 (inferred); not fully specified (C-terminus); printed as D W T C S r D E Y T W H C N Y E
For the molecule B2, the % Collagen Binding, Dried Rat in assay [1] worked out at 86%. Also, in assay [2], the % Collagen Binding, Dried Human turned out to be 87%.

B3: SEQ ID NO: 182 (peptide)
peptide: DWTCS[dY]DEYTWHCNYE
modifications: disulfide 4-13 (inferred); not fully specified (C-terminus); printed as D W T C S y D E Y T W H C N Y E
Molecule B3 registered a % Collagen Binding, Dried Rat in assay [1] of 86%. In addition, the % Collagen Binding, Dried Human in assay [2] is 89%.

B4: SEQ ID NO: 180 (peptide)
peptide: DWTCS[dS]DEYTWHCNYE
modifications: disulfide 4-13 (inferred); not fully specified (C-terminus); printed as D W T C S s D E Y T W H C N Y E
B4 had a % Collagen Binding, Dried Rat in assay [1] of 72%. The molecule further registered a % Collagen Binding, Dried Human in assay [2] of 81%.

B5: Type IV human collagen (soluble competitor protein), P02462 28-1669; P08572 26-1712 (protein)
chain 1: not shown
chain 2: FLAQSVLAGVKKFDVPCGGRDCSGGCQCYPEKGGRGQPGPVGPQGYNGPPGLQGFPGLQGRKGDKGERGAPGVTGPKGDVGARGVSGFPGADGIPGHPGQGGPRGRPGYDGCNGTQGDSGPQGPPGSEGFTGPPGPQGPKGQKGEPYALPKEERDRYRGEPGEPGLVGFQGPPGRPGHVGQMGPVGAPGRPGPPGPPGPKGQQGNRGLGFYGVKGEKGDVGQPGPNGIPSDTLHPIIAPTGVTFHPDQYKGEKGSEGEPGIRGISLKGEEGIMGFPGLRGYPGLSGEKGSPGQKGSRGLDGYQGPDGPRGPKGEAGDPGPPGLPAYSPHPSLAKGARGDPGFPGAQGEPGSQGEPGDPGLPGPPGLSIGDGDQRRGLPGEMGPKGFIGDPGIPALYGGPPGPDGKRGPPGPPGLPGPPGPDGFLFGLKGAKGRAGFPGLPGSPGARGPKGWKGDAGECRCTEGDEAIKGLPGLPGPKGFAGINGEPGRKGDRGDPGQHGLPGFPGLKGVPGNIGAPGPKGAKGDSRTITTKGERGQPGVPGVPGMKGDDGSPGRDGLDGFPGLPGPPGDGIKGPPGDPGYPGIPGTKGTPGEMGPPGLGLPGLKGQRGFPGDAGLPGPPGFLGPPGPAGTPGQIDCDTDVKRAVGGDRQEAIQPGCIGGPKGLPGLPGPPGPTGAKGLRGIPGFAGADGGPGPRGLPGDAGREGFPGPPGFIGPRGSKGAVGLPGPDGSPGPIGLPGPDGPPGERGLPGEVLGAQPGPRGDAGVPGQPGLKGLPGDRGPPGFRGSQGMPGMPGLKGQPGLPGPSGQPGLYGPPGLHGFPGAPGQEGPLGLPGIPGREGLPGDRGDPGDTGAPGPVGMKGLSGDRGDAGFTGEQGHPGSPGFKGIDGMPGTPGLKGDRGSPGMDGFQGMPGLKGRPGFPGSKGEAGFFGIPGLKGLAGEPGFKGSRGDPGPPGPPPVILPGMKDIKGEKGDEGPMGLKGYLGAKGIQGMPGIPGLSGIPGLPGRPGHIKGVKGDIGVPGIPGLPGFPGVAGPPGITGFPGFIGSRGDKGAPGRAGLYGEIGATGDFGDIGDTINLPGRPGLKGERGTTGIPGLKGFFGEKGTEGDIGFPGITGVTGVQGPPGLKGQTGFPGLTGPPGSQGELGRIGLPGGKGDDGWPGAPGLPGFPGLRGIRGLHGLPGTKGFPGSPGSDIHGDPGFPGPPGERGDPGEANTLPGPVGVPGQKGDQGAPGERGPPGSPGLQGFPGITPPSNISGAPGDKGAPGIFGLKGYRGPPGPPGSAALPGSKGDTGNPGAPGTPGTKGWAGDSGPQGRPGVFGLPGEKGPRGEQGFMGNTGPTGAVGDRGPKGPKGDPGFPGAPGTVGAPGIAGIPQKIAVQPGTVGPQGRRGPPGAPGEMGPQGPPGEPGFRGAPGKAGPQGRGGVSAVPGFRGDEGPIGHQGPIGQEGAPGRPGSPGLPGMPGRSVSIGYLLVKHSQTDQEPMCPVGMNKLWSGYSLLYFEGQEKAHNQDLGLAGSCLARFSTMPFLYCNPGDVCYYASRNDKSYWLSTTAPLPMMPVAEDEIKPYISRCSVCEAPAIAIAVHSQDVSIPHCPAGWRSLWIGYSFLMHTAAGDEGGGQSLVSPGSCLEDFRATPFIECNGGRGTCHYYANKYSFWLTTIPEQSFQGSPSADTLKAGLIRTHISRCQVCMKNL
modifications: here or on the partner: as printed: Gd^T-K(Gd^D)-K(Gd^D)-W-H-C-Y-T-Y-F-P-H-H-Y-C-V-Y-G; Gd^T = GdDTPA-thiourea, Gd^D = GdDOTAGA; cyclic through a disulfide between the two cysteines
Regarding B5, in the assay with Compound ID No 1014 [3], the % of Comp ID No 1014 bound to insoluble rat collagen in presence of the competitor came to 28.1%. For the same molecule, the % of Comp ID No 1014 bound to insoluble human collagen in presence of the competitor with Compound ID No 1014 [4] was 59.9%.
